The supplement of paper PMC12636428

Tested on: Saccharomyces cerevisiae
Experiment: transcriptional activation domain activity (GFP:mCherry ratio, weighted mean of sorted bins, harmonized to initial dataset scale) (arbitrary fluorescence ratio units); higher = stronger transcriptional activation
Conditions: beta-estradiol 1 µM; induction time 4 h
How it was run: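 In diploid yeast carrying a GFP reporter, barcoded protein tiles fused to an estradiol-inducible synthetic transcription factor were integrated at the URA3 locus. Cultures diluted 1:5 into SC with 1 uM beta-estradiol were kept at 30 °C for 4 hours, then sorted by GFP:mCherry ratio into 8 bins before barcode sequencing. Tiles with under 50 reads were excluded. The activation activity reported here is the read-weighted mean of bin median fluorescence, averaged across barcodes and linearly rescaled to the initial dataset.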

MTGTTLLPPPFISNDVTNSADSTNIKPSPSSSVDNLNDYLTDINSLAWGVNSL
transcriptional activation domain activity: 67600

ILENKGLNEDLSSHIYEKEAPKFDSDIDISRFGTNDAVIFNNDGWDTSLPIDF
transcriptional activation domain activity: 102000

LLYLPAVLEIYQDVHRSDLSSTVSWETFVAKIFEWMELQYVWPIAGKLLVTIF
transcriptional activation domain activity: 74800

EGSARGGEAGKKEERQADEKEHKGRARPGRGEKDGGGRGRREEERDRKEQNGG
transcriptional activation domain activity: 34000

DGEATATPAKPKTPRKRKVKAADSAEEGTGDAEGSPKKKAGGRKKKADVAVKE
transcriptional activation domain activity: 38600

MYVCVYIFGCYLFGFMIFVYFFPIYFFNSLFSCSYFFFLLIYSFILFIYSVAA
transcriptional activation domain activity: 44800

IGLPGFTWVYVARYGSVFNLLGLGVIGVVWNWGLAAVSISNYGNCWERLINWR
transcriptional activation domain activity: 54300

AFLLFLIYLTFFCWVCFATSATWVWTEILSDNQYTESFMPINDVLLAVLSGII
transcriptional activation domain activity: 47600

VDADTASSVSGMTGGRSARWREDVMELCLACVAVGCVKDVGAVNNYHQTGELR
transcriptional activation domain activity: 42700

KRRGDQGKEQDRKGGEGGEEERGNGARGGGSARKEGDKGGEQKEGGRQRERAG
transcriptional activation domain activity: 41700

LGVFGVALYVLSFFENFDSCHWCFHYDLWSPMAYILMRYSIEAILWSSRLALF
transcriptional activation domain activity: 70600

TENIERVLERGERIDLLVDKTGRLNVGANEFRRRSRGLRRRMWWKNVKLMALL
transcriptional activation domain activity: 65200

SNHNNDNDNSNNGDGNNNNTISELVCFDESIADLYPVEIDSPYLITLAYLDKL
transcriptional activation domain activity: 71900

MHYRYIAGFFFVHTFSCGQGLKDSNLILQCVPLYPQLHPFFLIFLHFFVFLSL
transcriptional activation domain activity: 70600

HLKHTFVMDVAMSIGYLMAPVLVSACAFIWYVKVDNHELSASVVFVSITLFDM
transcriptional activation domain activity: 61800

GEAGAEQGEHGARRARTRGAGCVRGRGREVGEGAGARRRVCGRRCEREARAHN
transcriptional activation domain activity: 23400

MELFFGLSFFLAYVPGCYSFLLTILIPLLCYYIFTRYLRCLVLHGLGFFFSLF
transcriptional activation domain activity: 77000

RTLLVVLISMLYFLTVEMFLPVFYLFDESLYNFLSWILTAFWSRLALWVLGFY
transcriptional activation domain activity: 56000

KVVLLFAGWIIKIIVAKLMLAWSQSMRKVIVQRAQLVYRFGINGMVFYSIGCA
transcriptional activation domain activity: 60400

MQLDGVQLGFVGLTPFFRERHTECPVFILVVGHSCKLLLIMHIILVIHLLDCR
transcriptional activation domain activity: 52900

MIASHPSPFLSRLFGLPLLFFSSFIEVSLFFLFFLPSLRFLFFFFPSLALFFF
transcriptional activation domain activity: 42700

LSIFSWMSWIAPESLNLSTITGFNNGLGINPWPTWDWNTLLFDAADPLMIPFF
transcriptional activation domain activity: 39700

MLCFIDLLIFGISLCFLSLLLFLSFFLLFFFFFLVFSEEFVLLHSAAWSFILS
transcriptional activation domain activity: 41200

EGGEKGTKEGGEKKEGAGEKEGGEKKEGGEKEGAKEGGEIGAKEGEEKKEGGE
transcriptional activation domain activity: 17500

EREREKREEREREAARLRREAEEREREEHEGRKREKREEPEEREAEEREREVE
transcriptional activation domain activity: 33200

YKTTMARLIYLMDDKFKLFDHLRALKKYLLLGQGDFIALLMESLASNLDRPAN
transcriptional activation domain activity: 55100

MSLFFLFFFFFSSFFSFFLLLPLCSVMFMPPVLSLYGVTMGFLPPPPFFFFLF
transcriptional activation domain activity: 37900

IGWFFPFWIVLLLPLDMASSLYEGCDMLCRRPFTWVSQSFLYIAWRTIYWTSF
transcriptional activation domain activity: 59000

SIRVILLNLGLSNGLETIPYGLISIIYQSKYQSFAYTLLFFSNLFTYSLWYVV
transcriptional activation domain activity: 61200

TADTAAASTSQPKLAQDQQQATDGENSEKRKPGRPRGSRNRKPRASVGSATKA
transcriptional activation domain activity: 37800

SDSGSEVDEKNNKNEKIDSESIKNNESKDDIPSKDENSSNDNREISKTDEEGH
transcriptional activation domain activity: 35100

EAPREIKAKPEKKKAKPAEAAAPKKESKGKKVKADKKAGADKKADPAAAPAAG
transcriptional activation domain activity: 15300

MSSLPLFPVLSSSLCFPLPPSLPLSSPPSVSPFPPFSLFPPLPLFSPFPPSIS
transcriptional activation domain activity: 38900

HAGTMESHPHTNIHEELKEFLSGDLIEAEDNAKLMFGDDNSNPADYLLEFGSG
transcriptional activation domain activity: 72500

SVKHIITLFDDVRQNLAHAGLVALLLAQPHMIVLLTDVWLHMFRYLSAFEITI
transcriptional activation domain activity: 52100

ELLRVLNKAHIYLMCLYLFSGLDAHMGILRDFKLIDSHYRLSLHTLICVLVSW
transcriptional activation domain activity: 71000

APTTSKKRGRKADTNSDDAGSPSEPRRLRRSHEACARCRSKKIKASPVGRHRP
transcriptional activation domain activity: 30900

PLVVFPNFMAVVIIFGFFFMYFEDFNKEVFLHNKHHQIWVYLHFPLHLCQVAF
transcriptional activation domain activity: 78400

EDDDGKGNKQKTSEKRKLQNRQAQRNFRERKEKVSCPSSPAAPRASQGTRGSC
transcriptional activation domain activity: 23900

MVAAATARTRRAATVATRRTRPVVMAMAVVVATRNRRATTRAAGIRQAGIRRV
transcriptional activation domain activity: 45900

TSTGRFAFRQHRDHTTIHEGSWVSAGPGYDVGNRMWLLSRVVINAVVLELSSL
transcriptional activation domain activity: 42400

MLETRFINNLVPLYRFLLPFYIFFFFSIYCYYLTIDPHYFSLSSMVFFFSCCT
transcriptional activation domain activity: 57600

TAPSATSAAALVTSPATALRVAMVVSRAAAPAAATTVPARARPATPAVVSATC
transcriptional activation domain activity: 51300

KIRTNALLSSFLVSLTEGAANGTRFASPEGAVTSALVRIFLRLIWLWTATGRR
transcriptional activation domain activity: 57200

FVYSLCIRYLLAPTPTFQEHGVSPRRSTGIALITLFFIILVIFLLTWMRLIHI
transcriptional activation domain activity: 45100

SNRGSGGGGRATGAHSRRGRGSGDRGGRSSARSRSKSPGAEVAEAGEPAPAVP
transcriptional activation domain activity: 17900

SKIAWMILNIKYITQILTTIMRMHGQIEKNPLRPEVVPQFVGICRWIMQFMIY
transcriptional activation domain activity: 55700

INSTVHNLCELVLLPELFGFCCFSMRFFVFIDLLGTLILPATVVYLLYLIIVV
transcriptional activation domain activity: 26100

MPGVTGHHLTSWYWLSFIFIFLFYFALLVVFIWVIFSYLFTHLIRFGHAVVVS
transcriptional activation domain activity: 29000

LEGGRVIQRGRHNVATDVVGCFYDAFCTLLPQMIIVRVTRGKAWDSRVIYPTE
transcriptional activation domain activity: 66400

KKNRHGKFAYSDRYNLSEYIIEQLSEYDDIDLVKPWHRKLMLLHPFVILWVFF
transcriptional activation domain activity: 60600

REGRKKGREAREKRSGGKGGKGGKGKGRATDGAEGAEEGAAAGARQPNGRNAK
transcriptional activation domain activity: 22200

EASRSKAATAAAAAADGGKSAAAGEVEERKRKAKAEREAKKAKGALAAAAGAG
transcriptional activation domain activity: 31600

AAAVEKTEEEKPVAAAAAPAAEKEKAPAAKAKKATTTKKAAAPKKAAAPKAKK
transcriptional activation domain activity: 27700

KRNKPNACGGCGAESDENGGALMMCSRCKDRKYCGAECQKTHWKVHKKVCEVA
transcriptional activation domain activity: 58500

PIPLGYGSLWMYEFLYFCLLHVVFTICDGIYLLRAELTLIILLHFLLSWDEGN
transcriptional activation domain activity: 47600

YTYLSNAQLILSICSLYSCSPYLDPYMLLPLLRWAFLYVFLLVLAFAAVLFSA
transcriptional activation domain activity: 41800

AFLLFLIYLTLFCWVCFATSSTWVWSEILSDGQYTESFMPVNYVLLAVLSGII
transcriptional activation domain activity: 49600

MEQSMGFMIHVYITVIPLGDVYEVLVFLILRSILPLPPGFLCLSLLLHDLFFI
transcriptional activation domain activity: 62400

MATPSTGAPPPKQIRFVNNQGQPPSKRRRVNAACLTCRKRKTRCDGEKPTCST
transcriptional activation domain activity: 20200

IWDLWTFGGLDFWGLGFGIWDLGLGFGDWDFIYPPPLPVSVFFLLFLSFGVCW
transcriptional activation domain activity: 56900
